Tests used:
[1] = target: CD44v6 (human CD44 variant isoform containing exon v6) on human tumour cells (human) (UniProt P16070); experiment: competitive cell ELISA (A431 cells, vs BIWA 1)
Target sequence in this assay (P16070 21-742, stated change not applied): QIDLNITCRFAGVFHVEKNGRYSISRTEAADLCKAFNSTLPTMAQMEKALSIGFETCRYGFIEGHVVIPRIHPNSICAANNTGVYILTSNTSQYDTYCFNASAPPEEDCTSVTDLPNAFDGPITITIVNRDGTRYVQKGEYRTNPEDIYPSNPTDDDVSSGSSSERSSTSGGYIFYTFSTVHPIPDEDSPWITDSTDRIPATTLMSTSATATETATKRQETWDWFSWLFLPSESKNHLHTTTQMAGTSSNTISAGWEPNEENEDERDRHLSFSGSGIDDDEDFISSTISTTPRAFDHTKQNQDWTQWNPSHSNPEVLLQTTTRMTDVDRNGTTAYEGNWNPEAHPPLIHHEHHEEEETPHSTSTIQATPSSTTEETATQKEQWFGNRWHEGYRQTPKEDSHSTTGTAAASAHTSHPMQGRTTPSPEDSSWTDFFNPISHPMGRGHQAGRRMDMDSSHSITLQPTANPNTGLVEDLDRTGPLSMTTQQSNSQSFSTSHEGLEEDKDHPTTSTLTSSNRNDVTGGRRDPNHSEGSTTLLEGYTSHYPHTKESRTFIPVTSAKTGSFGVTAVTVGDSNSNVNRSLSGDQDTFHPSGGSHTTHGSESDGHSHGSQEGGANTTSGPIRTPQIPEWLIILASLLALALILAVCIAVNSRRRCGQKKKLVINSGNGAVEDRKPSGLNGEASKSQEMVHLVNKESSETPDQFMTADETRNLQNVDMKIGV

[2] = target: glutathione-S-transferase fusion protein containing domains v3-v10 of human CD44 (human) (UniProt P16070); experiment: SPR (BIAcore 2000), GST/CD44v3-v10 immobilised on CM5, MAb 8-67 nM injected
[3] = target: CD44v6 (human CD44 variant isoform containing exon v6) on human tumour cells (human) (UniProt P16070); experiment: immunoreactivity assay, 186Re-MAG3-labelled MAb on fixed UM-SCC-11B cells
[4] = target: CD44v6 (human CD44 variant isoform containing exon v6) on human tumour cells (human) (UniProt P16070); experiment: immunoreactivity assay, 125I-labelled MAb on glutaraldehyde-fixed UM-SCC-11B cells, experiment 2
[5] = target: CD44v6 (human CD44 variant isoform containing exon v6) on human tumour cells (human) (UniProt P16070); experiment: immunoreactivity assay on fixed UM-SCC-11B cells, linear extrapolation to infinite antigen excess, experiment 2
[6] = target: glutathione-S-transferase fusion protein containing domains v3-v10 of human CD44 (human) (UniProt P16070); experiment: SPR (BIAcore 2000), GST/CD44v3-v10 immobilised on CM5

Sequence of glutathione-S-transferase fusion protein containing domains v3-v10 of human CD44 (human) (P16070 267-604): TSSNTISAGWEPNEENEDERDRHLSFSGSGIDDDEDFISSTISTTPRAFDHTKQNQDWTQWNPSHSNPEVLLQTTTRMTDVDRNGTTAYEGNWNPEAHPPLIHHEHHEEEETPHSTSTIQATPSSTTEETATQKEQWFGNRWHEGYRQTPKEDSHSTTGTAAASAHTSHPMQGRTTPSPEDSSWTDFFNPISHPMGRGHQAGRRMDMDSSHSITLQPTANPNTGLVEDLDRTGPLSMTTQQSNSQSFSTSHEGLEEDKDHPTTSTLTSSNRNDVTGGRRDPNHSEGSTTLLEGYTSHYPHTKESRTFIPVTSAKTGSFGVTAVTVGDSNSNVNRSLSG

IC50 [1] | Kd [2] | koff [2] | kon [2] | immunoreactive fraction [3] | Binding to 5 × 10^6 cells (%) [4] | Binding Extrapolated (%) (immunoreactive fraction) [5] | Kd relative to murine BIWA 1 [6] | Substance
8.01 µg/mL |  |  |  |  |  |  |  | hMAb BIWA 4 (bivatuzumab), humanised CDR-grafted antibody without framework modifications
 | 0.24 nM | 4.1e-05 s⁻¹ | 170000 M⁻¹ s⁻¹ | > 75% | 80.5% | 79.9% | 0.7 | cMAb BIWA 2 (chimeric antibody: BIWA 1 variable regions, human gamma-1 and kappa constant regions)
